The source of these data is patent US20100069462A1 (JICHI MEDICAL UNIVERSITY, published 2010).

The test has as its target T1, PHB2-FLAG (human PHB2 protein with a FLAG tag fused to the carboxyl terminus) (human, UniProt O35129 1-299 (mouse entry)).
T1 construct: Expressed in HeLa cells; immunoprecipitated with an anti-FLAG antibody from purified mitochondrial fractions; also called prohibitin 2; not shown: FLAG tag at the C-terminus
The test can be described thus: immunoprecipitation and mass spectrometry on purified HeLa mitochondrial fractions (summary of Example 3). As for the experimental part:
First, immunoprecipitation (IP) analysis and mass spectrometry (MASS analysis) were conducted using purified mitochondrial fractions derived from HeLa cells expressing PHB2-FLAG, which had been prepared in Example 1.
In IP analysis, an immunoprecipitation method was performed using an anti-FLAG antibody, the precipitates were subjected to 12% SDS-PAGE, protein staining was performed, and then proteins that had been co-precipitated with the PHB2-FLAG protein were detected.

T1 sequence (O35129 whole entry, the tested form may be a part): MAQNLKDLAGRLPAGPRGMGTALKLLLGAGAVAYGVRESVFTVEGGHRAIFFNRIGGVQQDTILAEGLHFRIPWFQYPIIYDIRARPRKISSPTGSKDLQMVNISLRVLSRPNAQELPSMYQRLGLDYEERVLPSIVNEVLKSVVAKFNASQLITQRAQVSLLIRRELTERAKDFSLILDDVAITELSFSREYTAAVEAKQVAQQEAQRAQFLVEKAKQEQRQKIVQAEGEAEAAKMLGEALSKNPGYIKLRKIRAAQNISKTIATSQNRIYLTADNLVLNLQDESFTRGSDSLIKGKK

B1: PHB1 protein (other, human, UniProt P35232 2-272, looked up)
chain: AAKVFESIGKFGLALAVAGGVVNSALYNVDAGHRAVIFDRFRGVQDIVVGEGTHFLIPWVQKPIIFDCRSRPRNVPVITGSKDLQNVNITLRILFRPVASQLPRIFTSIGEDYDERVLPSITTEILKSVVARFDAGELITQRELVSRQVSDDLTERAATFGLILDDVSLTHLTFGKEFTEAVEAKQVAQQEAERARFVVEKAEQQKKAAIISAEGDSKAAELIANSLATAGDGLIELRKLEAAEDIAYQLSRSRNITYLPAGQSVLLQLPQ
notes: Endogenous protein co-precipitated from HeLa mitochondrial fractions; also called prohibitin
For the molecule B1, the binding result is on record as “binds”.
